This note sets out measurements from patent US20140179900A1.

The target in assay [1] is monoclonal antibody 12G6H5 (“Frida”). Briefly: inhibition ELISA FIG. 18c, high peptide, 2.5 ng Frida, coat p4073.
For assay [2] the target is unchanged. Kind of assay: inhibition ELISA FIG. 18c, low peptide, 2.5 ng Frida, coat p4073.
The target is the same in assay [3]. Briefly: inhibition ELISA FIG. 18a, low peptide, 2.5 ng Frida, coat p4073.
Assay [4] shares this target. Briefly: inhibition ELISA FIG. 18a, high peptide, 2.5 ng Frida, coat p4073. Background: ELISA stands for enzyme-linked immunosorbent assay.
Assay [5] has the same target. Briefly: inhibition ELISA FIG. 10a, 20 µg peptide, 2.5 ng Frida, coat p4073.
The target is the same in assay [6]. Briefly: inhibition ELISA FIG. 10a, 2 µg peptide, 2.5 ng Frida, coat p4073.
Assay [7] shares this target. Briefly: inhibition ELISA FIG. 10b, 2 µg peptide, 2.5 ng Frida, coat p4073.
For assay [8] the target is unchanged. Kind of assay: inhibition ELISA FIG. 10b, 20 µg peptide, 2.5 ng Frida, coat p4073.

In the case of CAAAPAHLLVDAAQAAA [p4437 C-…], the ELISA signal with competitor in assay [1] is 1.67; in assay [2] it was 1.84.
As for CFGFPAHFSIDWLQSLS [p4475 C-…], the figures for the ELISA signal with competitor in assay [3] and in assay [4] were 2.21 and 1.43, respectively.
In the same order, the values of CFGFPAHVSFDWLQSLS [p4476 C-…] are 2 and 1.42.
Turning to CFGFPSHIIIDWLQSLS [p4432 C-…], the values for the ELISA signal with competitor in assay [1] and in assay [2] were 0.096 and 0.635, respectively.
CFGFPQHLFTDWLQSLS [p4481 C-…]: the figures for the ELISA signal with competitor in assay [3] and in assay [4] were 0.551 and 0.156, respectively.
Turning to CGFKPAHVFIDWLQSLS [p4479 C-…], the results for the ELISA signal with competitor in assay [3] and in assay [4] were 2.17 and 1.59, respectively.
For CFGFPAHVFIDWLQSLS [p4361 C-…], the ELISA signal with competitor turned out to be 0.16 in assay [5] and 0.82 in assay [6].
As for CFKPAHVFIDWLQSLS [p4478 C-…], the ELISA signal with competitor was found to be 2.23 in assay [3] and 1.21 in assay [4].
For CFGFPEHVFIDWLQSLS [p4477 C-…] the same measures were 0.808 and 0.116.
Take CFGFPEHLLVDFLQSLS [p4073 C-…, original CETP epitope]: the ELISA signal with competitor is 0.64 in assay [7]; 0.088 in assay [1]; 0.537 in assay [3]; 0.094 in assay [4]; 0.15 in assay [8]; 0.1 in assay [5]. Also, the ELISA signal with competitor in assay [6] is 0.44; in assay [2], 0.554.
Regarding FGFPEHLLVDFLQSLSC [p1208 …-C], the ELISA signal with competitor in assay [1] is 0.101; in assay [3] it was 0.712; in assay [4], 0.093; in assay [2], 0.942.
For CAAFAAHLLADFLQAAA [p4436 C-…], the results for the ELISA signal with competitor in assay [1] and in assay [2] were 1.69 and 1.63, respectively.
In the same order, the values of CAAFPAHLLADAAQALA [p4434 C-…] are 1.46 and 1.74.
Consider CFGFPAHVYIDWLQSLS [p4362 C-…], for which the ELISA signal with competitor in assay [5] was found to be 0.15; in assay [6], 0.75.
Turning to CDFGFPAHVFIDWLQSLS [p4480 C-…], the ELISA signal with competitor in assay [3] came to 0.521; in assay [4] it was 0.103.
In the same order, the values of CFGFPAHVFIDWLQSLN [p4474 C-…] are 1.45 and 0.179.
With CAAFPAHAAADFLQALA [p4435 C-…], the ELISA signal with competitor in assay [1] is 1.97; in assay [2], 1.28.
In the case of CFGFPSHLIIEWLQSLS [p4433 C-…], the ELISA signal with competitor in assay [1] amounted to 0.672; in assay [2] it was 1.11.
With CFGFPSHLIIDWLQSLS [p4325 C-…], the figures for the ELISA signal with competitor in assay [7] and in assay [8] were 0.42 and 0.1, respectively.
